Measured values published in patent US20210206856A1 (PANDION OPERATIONS, published 2021).
Residue numbers refer to the chain shown, from its start.

T1: mouse MAdCAM expressed on cells (mouse, UniProt Q61826 22-405)
T1 construct: whole, on cells
T1 sequence (looked up): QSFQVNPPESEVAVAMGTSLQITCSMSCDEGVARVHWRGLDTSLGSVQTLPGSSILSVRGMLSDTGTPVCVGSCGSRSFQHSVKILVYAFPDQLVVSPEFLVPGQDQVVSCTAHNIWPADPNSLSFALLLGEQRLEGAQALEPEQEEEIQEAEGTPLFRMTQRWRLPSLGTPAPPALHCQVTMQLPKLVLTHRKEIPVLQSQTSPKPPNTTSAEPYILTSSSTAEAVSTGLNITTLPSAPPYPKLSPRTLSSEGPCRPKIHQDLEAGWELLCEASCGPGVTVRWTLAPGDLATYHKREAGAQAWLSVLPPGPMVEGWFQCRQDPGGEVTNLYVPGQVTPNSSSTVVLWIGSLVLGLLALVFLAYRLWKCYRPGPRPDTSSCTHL

T2: human MAdCAM expressed on cells (human, UniProt Q13477 19-382)
T2 construct: whole, on cells; also called MADCAM1
T2 sequence (looked up): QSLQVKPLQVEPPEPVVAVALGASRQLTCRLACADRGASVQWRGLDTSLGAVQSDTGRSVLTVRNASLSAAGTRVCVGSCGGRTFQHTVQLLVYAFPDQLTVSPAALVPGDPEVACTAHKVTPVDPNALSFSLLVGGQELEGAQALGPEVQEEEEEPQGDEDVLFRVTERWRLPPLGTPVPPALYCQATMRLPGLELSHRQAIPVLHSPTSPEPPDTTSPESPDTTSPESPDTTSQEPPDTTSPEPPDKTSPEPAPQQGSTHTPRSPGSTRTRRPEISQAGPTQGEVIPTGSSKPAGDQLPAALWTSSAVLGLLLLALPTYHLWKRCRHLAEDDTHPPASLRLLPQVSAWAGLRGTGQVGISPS

B1: MAdCAM Antibody Table 2 Clone 15 (antibody, human IgG1, V domains shown)
VH: QVQLVQSGAEVKKPGASVKVSCKASGYTFTGYYMHWVRQAPGQGLEWMGWIGPNSGDTNYAQKFQGRVTMTRDTSTSTVYMELSSLRSEDTAVYYCARDLDHNWYFDLWGRGTLVTVSS
VL: DIVMTQSPLSLPVTPGEPASISCRSSQSLLHSNGYNYLDWYLQKPGQSPQLLIYSSSNRAPGVPDRFSGSGSGTDFTLKISRVEAEDVGVYYCMQALHIPLTFGGGTKVEIK
B2: MAdCAM Antibody Table 2 Clone 21 (antibody, human IgG1, V domains shown)
VH: EVQLVESGGGLVKPGGSLRLSCAASGFTFSSYWMSWVRQAPGKGLEWVSYISGDSGYTNYAAPVKGRFTISRDDSKNTLYLQMNSLKTEDTAVYYCARANSSGWYDWYFDLWGRGTLVTVSS
VL: not shown
B3: MAdCAM Antibody Table 2 Clone 10 (antibody, human IgG1, V domains shown)
VH: EVQLLESGGGLVQPGGSLRLSCAASGFMFGDYAMHWVRQAPGKGLEWVSAISGSGGSTYYADSVKGRFTISRDNSKNTLYLQMNSLRAEDTAVYYCAKDLVVAGIWYFDLWGRGTLVTVSS
VL: DIQMTQSPSSLSASVGDRVTITCRASQGISNNLNWYQQKPGKAPKLLIYDASSLESGVPSRFSGSGSGTDFTLTISSLQPEDFATYYCQQTHSFPSTFGQGTKLEIK
B4: MAdCAM Antibody Table 2 Clone 7 (antibody, human IgG1, V domains shown)
VH: EVQLLESGGGLVQPGGSLRLSCAASGFTFSDYQMSWVRQAPGKGLEWVAIISHADGGFKDYADSVKGRFTISRDNSKNTLYLQMNSLRAEDTAVYYCAKPYSSGWSAVYYFDYWGQGTLVTVSS
VL: DIQMTQSPSSLSASVGDRVTITCRASRGITNDLGWYQQKPGKAPKLLIYAASTLQSGVPSRFSGSGSGTDFTLTISSLQPEDFATYYCQQAYSFPWTFGQGTKVEIK
B5: MAdCAM Antibody Table 2 Clone 13 (antibody, human IgG1, V domains shown)
VH: QVQLVQSGAEVKKPGASVKVSCKASGYTFTTYYMHWVRQAPGQGLEWMGGFDPEDGETIYAQKFQGRVTMTRDTSTSTVYMELSSLRSEDTAVYYCARHAVAGAVGAGYYYYGMDVWGQGTMVTVSS
VL: B4 VL with R27E, G28S, T30S, D32W, G34A, A91S, F94V, W96F, Q100P, E105D
B6: MAdCAM Antibody Table 2 Clone 18 (antibody, human IgG1, V domains shown)
VH: QVQLVQSGAEVKKPGSSVKVSCKASGYTFTNYYMHWVRQAPGQGLEWMGGIIPIVDRVKYAQKFQGRVTITADESTSTAYMELSSLRSEDTAVYYCAKGRYTVNYYYGMDVWGQGTTVTVSS
VL: DIQMTQSPSSLSASVGDRVTITCQANQDISNYLNWYQQKPGKAPKLLIYRASKLEAGVPSRFSGSGSGTDFTLTISSLQPEDFATYYCQQSSEIPYSFGQGTKLEIK
B7: MAdCAM Antibody Table 2 Clone 19 (antibody, human IgG1, V domains shown)
VH: EVQLLESGGGLVQPGGSLRLSCAASGFTFEDYAMHWVRQAPGKGLEWVSYLNSDGGSTSYADSVKGRFTISRDNSKNTLYLQMNSLRAEDTAVYYCAKDYCTNGVCAFDYWGQGTLVTVSS
VL: DIQMTQSPSSLSASVGDRVTITCRASQSISTYLNWYQQKPGKAPKLLIYDASNLETGVPSRFSGSGSGTDFTLTISSLQPEDFATYYCQQSYTIPITFGQGTRLEIK
B8: MAdCAM Antibody Table 2 Clone 34 (antibody, human IgG1, V domains shown)
VH: QVQLVQSGAEVKKPGASVKVSCKASGYTFTGYYIHWVRQAPGQGLEWMGWMNPNSGNTGYAQKFQGRVTMTRDTSTSTVYMELSSLRSEDTAVYYCARDPGFLGYCSGGSCYDGWFDPWGQGTLVTVSS
VL: B7 VL with T31S, N34H, D50A, N53S, E55Q, T56S, I94A, I96Y, R103K
B9: MAdCAM Antibody Table 2 Clone 30 (antibody, human IgG1, V domains shown)
VH: EVQLLESGGGLVQPGGSLRLSCAASGFTFSSYAMHWVRQAPGKGLEWVSGISGSGGSAYYADSVKGRFTISRDNSKNTLYLQMNSLRAEDTAVYYCATSQAPVDYYYYGMDVWGQGTTVTVSS
VL: B7 VL with T31S, Y32W, N34A, D50A, E55Q, T56R, T93S, R103K, L104V
B10: MAdCAM Antibody Table 2 Clone 35 (antibody, human IgG1, V domains shown)
VH: B8 VH with C106S, C111S
VL: B7 VL with T31S, N34H, D50A, N53S, E55Q, T56S, I94A, I96Y, R103K
B11: MAdCAM Antibody Table 2 Clone 26 (antibody, V domains shown)
VH: EVQLLESGGGLVQPGGSLRLSCAASGFTFSSYAMSWVRQAPGKGLEWVSYISSSSTYTNYADSVKGRFTISRDNSKNTLYLQMNSLRAEDTAVYYCARANSSSWYDWYFDLWGQGTLVTVSS
VL: not shown
B12: MAdCAM Antibody Table 2 Clone 27 (antibody, V domains shown)
VH: B11 VH with A33Q
VL: not shown
B13: MAdCAM Antibody Table 2 Clone 9 (antibody, human IgG1, V domains shown)
VH: QVQLVQSGAEVKKPGASVKVSCKASGYTFTSYYMHWVRQAPGQGLEWMGIINHSGGSTSYAQKFQGRVTMTRDTSTSTVYMELSSLRSEDTAVYYCARPYSGWYFAFDIWGQGTLVTVSS
VL: not shown
B14: MAdCAM Antibody Table 2 Clone 1 (antibody, human IgG1, V domains shown)
VH: EVQLLESGGGLVQPGGSLRLSCAASGFTFSSYGMHWVRQAPGKGLEWVAVISDDGSDKYYADSVKGRFTISRDNSKNTLYLQMNSLRAEDTAVYYCTTSKYYYYYGMDVWGQGTTVTVSS
VL: DIQMTQSPSSLSASVGDRVTITCQASQDISKSLNWYQQKPGKAPKLLIYAASSLQSGVPSRFSGSGSGTDFTLTISSLQPEDFATYYCQQGYSTPLTFGGGTKVEIK
B15: MAdCAM Antibody Table 2 Clone 11 (antibody, human IgG1, V domains shown)
VH: EVQLLESGGGLVQPGGSLRLSCAASGFTFSDYYMNWVRQAPGKGLEWVSVIGESGGSTYYADSVKGRFTISRDNSKNTLYLQMNSLRAEDTAVYYCAADPVSRWPKHGGGDYWGQGTLVTVSS
VL: B4 VL with R27Q, T30S, N31S, D32S, G34A, A91S, F94T
B16: MAdCAM Antibody Table 2 Clone 32 (antibody, human IgG1, V domains shown)
VH: QVQLVQSGAEVKKPGASVKVSCKASGYTLTTWYMYWVRQAPGQGLEWMGWINPNRGATNYAQKFQGRVTMTRDTSTSTVYMELSSLRSEDTAVYYCAKGDLWGAMDVWGQGTLVTVSS
VL: B14 VL with Q24R, Q27D, D28N, S30G, K31S, S32W, N34A, L96P, G100Q
B17: MAdCAM Antibody Table 2 Clone 25 (antibody, human IgG1, V domains shown)
VH: EVQLLESGGGLVQPGGSLRLSCAASGFTFSNAWMSWVRQAPGKGLEWVSTIVGNGGATYYADSVKGRFTISRDNSKNTLYLQMNSLRAEDTAVYYCARDNPLRWQGMDVWGQGTLVTVSS
VL: B14 VL with Q24R, K31N, S32Y, G91S, T94I, L96P, G100P, E105D
B18: MAdCAM Antibody Table 2 Clone 12 (antibody, human IgG1, V domains shown)
VH: B16 VH
VL: B14 VL with Q24R, Q27D, D28N, S30G, K31S, S32W, N34A, L96P, G100Q
B19: MAdCAM Antibody Table 2 Clone 16 (antibody, human IgG1, V domains shown)
VH: EVQLLESGGGLVQPGGSLRLSCAASGFTFDDYAMHWVRQAPGKGLEWVSYIDASGTTIYYADSVKGRFTISRDNSKNTLYLQMNSLRAEDTAVYYCAKDQAAAGYWYFDLWGRGTLVTVSS
VL: B7 VL with R24Q, S28D, T31N, D50K, N53T, T56S, T93S, I94T
B20: MAdCAM Antibody Table 2 Clone 8 (antibody, human IgG1, V domains shown)
VH: QVQLVQSGAEVKKPGASVKVSCKASGYTFTGYHIHWVRQAPGQGLEWMGIINPSGGSTIYAQKFQGRVTMTRDTSTSTVYMELSSLRSEDTAVYYCAKDWSSWYLGPFDYWGQGTLVTVSS
VL: B14 VL with Q24R, D28N, K31S, G91S, S93T, L96Y, G100Q
B21: MAdCAM Antibody Table 2 Clone 33 (antibody, human IgG1, V domains shown)
VH: B16 VH with L113T
VL: B14 VL with Q24R, Q27D, D28N, S30G, K31S, S32W, N34A, L96P, G100Q

molecular target: T1, mouse MAdCAM expressed on cells; assay: cell binding

| binding result | Binder |
| --- | --- |
| no binding | B1 |
| no binding | B2 |
| binds | B3 |
| binds | B4 |
| no binding | B5 |
| no binding | B6 |
| no binding | B7 |
| no binding | B8 |
| binds | B9 |
| no binding | B10 |
| no binding | B11 |
| no binding | B12 |
| no binding | B13 |
| binds | B14 |
| binds | B15 |
| no binding | B16 |
| no binding | B17 |
| no binding | B18 |
| no binding | B19 |
| binds | B20 |
| no binding | B21 |

molecular target: T2, human MAdCAM expressed on cells; assay: cell binding

| binding result | Binder |
| --- | --- |
| binds | B1 |
| binds | B2 |
| binds | B3 |
| binds | B4 |
| binds | B5 |
| binds | B6 |
| binds | B7 |
| binds | B8 |
| binds | B9 |
| binds | B11 |
| binds | B14 |
| binds | B15 |
| binds | B17 |
| binds | B18 |
| binds | B19 |
| binds | B20 |
| binds | B21 |
